# Measured values published in the supplement of paper PMC10567573.
# B1: ZNF649 (parent)
# chain: LTEHKRIHTGKKPHVCSLCGKAFY
# B2: TMEM175 (parent)
# chain: ALLHQAETLQPSVWFGGREHVLMF
# Variants of: B1
# Assay: protein stability index of a GFP-peptide fusion (GPS, HEK-293T) (PSI 1-6); higher = more stable
# Conditions: c terminus: a fixed tail appended
# 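Also: lentivirally expressed fusions sorted by FACS into six bins by GFP to DsRed ratio, PSI derived from sequencing read proportions per bin multiplied by bin number.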
row,Variant,protein stability index
1,E3Y,2.89
2,E3Q,2.32
3,E3L,1.15
4,C19N,2.89
5,C19Q,2.04
6,C19W,1.3
7,C19A,2.65
8,C19M,2.46
9,C19F,1.81
10,G20S,2.35
11,G20M,2.56
12,G20R,2.05
13,G20D,2.79
14,F23D,3.98
15,F23H,4.3
16,F23S,2.97
17,F23N,2.4
18,A22M,2.85
19,A22V,2.85
20,A22R,3.22
21,A22G,2.56
22,A22W,2.48

row,Variant,protein stability index
1,A22C,2.55
2,K5I,3
3,K5F,2.25
4,K5V,2.48
5,K5D,3.35
6,K5N,3.39
7,Y24Q,3.04
8,Y24I,1.81
9,Y24P,3.45
10,Y24M,2.69
11,K11S,2.43
12,K11E,3.4
13,K11V,2.88
14,K11R,1.76
15,K11G,2.54
16,K11P,2.76
17,K21P,2.55
18,K21T,2.78
19,K21A,2.03
20,H14A,3.54
21,P13H,2.29
22,P13V,3.06

row,Variant,protein stability index
1,L1T,2.58
2,L1C,3.22
3,L1H,2.97
4,L1A,3.24
5,L1K,3.22
6,L1D,3.45
7,L1P,3.05
8,S17A,2.58
9,S17K,2.34
10,G10H,2.16
11,G10V,2.28
12,G10S,2.19
13,I7K,1.98
14,I7P,2.38
15,T9M,2.85
16,T9K,2.35
17,T9P,2.85
18,T9Y,2.3
19,T9Q,2.31
20,H4C,2.78
21,R6H,3.63
22,R6Y,2.5

row,Variant,protein stability index
1,T2L,2.09
2,T2R,2.78
3,H8L,2.29
4,V15A,1.54
5,V15C,2.6
6,V15Q,2.35
7,V15S,2.23
8,L18A,1.97
9,L18C,3.2
10,L18H,3.13
11,L18I,2.23
12,L18D,2.84
13,L18M,3.36
14,K12C,2.81
15,K12V,3.42
16,C16Q,1.93
17,C16M,2.75
18,C16G,2.01
19,C16T,2.23
20,C16F,1.48
21,C16A,2.94

# Variants of: B2
# Assay: as above
# Conditions: c terminus: a fixed tail appended
row,Variant,protein stability index
1,H4S,1.99
2,H4Q,1.73
3,H4E,1.56
4,H4G,1.75
5,H4Y,2.17
6,H4K,1.52
7,H4P,1.41
8,H4A,1.9
9,H4N,2.84
10,H4C,3.01
11,G17V,2.62
12,G17W,1.67
13,G17Q,1.4
14,G17E,1
15,G17T,2.68
16,G17A,3.03
17,G17H,2.45
18,G17Y,1.58
19,G17R,3.53
20,G17D,1.27
21,G17K,1.66
22,Q10R,2.36
23,Q10N,3.13
24,Q10M,1.96
25,Q10D,2.35

row,Variant,protein stability index
1,Q10I,2.49
2,Q10H,1.99
3,Q10W,1.51
4,Q10P,2.16
5,Q10V,1.06
6,R18A,2.59
7,R18L,3.03
8,R18P,1.71
9,R18K,3.39
10,R18Q,2.33
11,R18H,2.17
12,R18F,2.29
13,R18V,1.44
14,R18N,3.11
15,R18C,3.1
16,R18W,3.12
17,R18M,2.03
18,R18G,2.08
19,R18T,2.46
20,E7Q,2.71
21,E7S,2.22
22,E7G,3.88
23,E7N,1.88
24,E7P,1.96
25,E7Y,1.78

row,Variant,protein stability index
1,E7M,3.19
2,E7W,3.4
3,E7F,2.64
4,E7D,1
5,E7H,3
6,P11G,1.24
7,P11D,2.79
8,P11H,1.77
9,P11A,1.78
10,P11Q,1.38
11,P11L,1.82
12,F24E,2.15
13,F24H,2.15
14,F24W,2.13
15,F24S,2.56
16,F24K,2.5
17,F24T,2
18,F24G,1.47
19,F24D,2.69
20,F24N,3.21
21,F24R,2.56
22,S12Q,1.82
23,S12W,2.82
24,S12P,4.3
25,S12M,1.75

row,Variant,protein stability index
1,S12I,3.85
2,S12V,3.21
3,S12N,1
4,S12E,2.31
5,S12T,2.65
6,F15N,1.65
7,F15A,1.88
8,F15H,2.12
9,F15C,2.5
10,F15Y,2.4
11,F15S,1.57
12,F15Q,1.27
13,F15E,1.57
14,F15D,2.29
15,F15R,2.02
16,L2H,1.48
17,L2Q,1.42
18,L2D,2.01
19,L2E,1.93
20,L2A,2.96
21,L2P,1.87
22,L2S,2.83
23,L2T,1.53
24,L2G,1.2
25,L9C,3.64

row,Variant,protein stability index
1,L9A,2.42
2,L9E,1.16
3,L9R,2.19
4,L9Q,3.27
5,L9G,2.85
6,L9S,1.36
7,L9W,1.7
8,L9P,2.11
9,L9N,1.97
10,L9F,2.49
11,L3V,1.31
12,L3A,1.76
13,L3D,1.87
14,L3H,1.57
15,L3P,1.61
16,L3G,2.83
17,L3S,2.25
18,L3K,1.71
19,L3Y,3.46
20,L3Q,1.54
21,L3T,2.37
22,A1E,1.02
23,A1F,2.59
24,A1P,1.69
25,A1H,2.14

row,Variant,protein stability index
1,A1Q,2.96
2,A1G,2.95
3,A1Y,2.71
4,A1C,1.71
5,A1L,2.58
6,A1R,1.81
7,A1T,2.38
8,V21E,1.53
9,V21R,2.18
10,V21Y,1.7
11,V21D,1.77
12,V21W,1.57
13,V21Q,1.69
14,V21S,1.52
15,V21C,2.73
16,V21A,1.42
17,V21I,1.53
18,V21P,2.11
19,V21M,2.55
20,V21L,2.41
21,V21N,2.02
22,V21H,2.89
23,W14M,2.08
24,W14R,2.65
25,W14S,1.55

row,Variant,protein stability index
1,W14Y,2.11
2,W14F,2.48
3,W14A,1.66
4,W14L,1.73
5,W14E,1.38
6,W14D,1.74
7,W14Q,2.24
8,W14N,1.3
9,W14G,2.64
10,W14I,2.22
11,E19L,2.74
12,E19W,2.92
13,E19P,2.37
14,E19Y,1.81
15,E19F,1.97
16,E19C,3.88
17,E19A,2.27
18,E19H,2.74
19,E19N,1.42
20,H20P,3.07
21,H20R,4.2
22,H20D,1.29
23,H20M,3.07
24,H20Q,1.44
25,H20G,1.74

row,Variant,protein stability index
1,H20N,2.48
2,H20T,3.65
3,H20S,2.21
4,V13Y,1.69
5,V13C,3.13
6,V13S,2.73
7,V13A,3.02
8,V13D,2.16
9,V13Q,3.1
10,V13P,2.16
11,V13M,2.46
12,V13R,2.02
13,V13W,2.36
14,V13N,2.28
15,G16H,2.1
16,G16Y,3.05
17,G16D,2.04
18,G16S,2.06
19,G16L,2.28
20,G16N,2.41
21,G16M,2.69
22,G16P,1.14
23,A6Y,2.91
24,A6Q,1.87
25,A6F,3.21

row,Variant,protein stability index
1,A6P,2.43
2,A6C,3.75
3,A6E,1.54
4,A6D,2.55
5,T8C,2.94
6,T8R,1.26
7,T8H,2.95
8,T8N,1.63
9,T8K,3.25
10,T8V,1.01
11,T8E,2.03
12,T8D,1.83
13,T8W,1.69
14,T8L,4.17
15,T8Y,2.91
16,T8F,3.68
17,L22C,3.13
18,L22E,2.09
19,L22S,2.06
20,L22R,1.93
21,L22Q,1.9
22,L22Y,2.94
23,L22N,2.19
24,L22G,1.77
25,L22P,2.05

row,Variant,protein stability index
1,L22V,3.06
2,Q5L,3.8
3,Q5M,3.42
4,Q5S,2.72
5,Q5F,1.43
6,Q5P,2.78
7,Q5T,2.94
8,Q5C,1.99
9,Q5V,3.06
10,Q5N,2.68
11,Q5E,1.07
12,Q5D,2.03
13,M23N,1.58
14,M23R,1.03
15,M23K,1.74
16,M23D,1.04
17,M23G,3.51
18,M23E,3.67
19,M23A,1.2
20,M23Q,1.84
21,M23F,1.67
22,M23V,1.27
